Assay results published in patent US20110091994A1, “Methods for Screening Compounds for Treating and/or Preventing an Hepatitis C Virus Infection” (priority 2008, published 2011).
Where two headings read alike, the source gives them in different places.

Assays:
[1] = molecular target: T1, HCV ORFs (Gal4-DB fusions) (Hepatitis C virus genotype 1b, UniProt Q9WMX2); type: binding, HCV genotype 1b, isolate con1; details: human protein as prey
T1 construct: expressed in transfected cells; host or cells: Saccharomyces cerevisiae MAV203 (IMAP1) / AH109 (IMAP2)

[2] = system: HCV ORFs (Gal4-DB fusions); type: binding, HCV genotype 1b, isolate con1; details: human protein listed by gene symbol; the value names the HCV protein it interacts with
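Note: yeast two-hybrid screens using HCV genotype 1b proteins fused to Gal4-DB as baits against prey cDNA libraries from human spleen and foetal brain, IMAP1 via transformation and IMAP2 via mating.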

| Molecule | IMAP Y2H IMAP2 (number of IST) ([1]; HCV protein NS5A as bait) | Interaction with viral protein [2] | IMAP Y2H IMAP2 (number of IST) ([1]; HCV protein NS4A as bait) | IMAP Y2H IMAP2 (number of IST) ([1]; HCV protein NS3 as bait) |
| --- | --- | --- | --- | --- |
| ARFIP1 (protein, UniProt P53367 2-373, looked up) Arfaptin-1: AQESPKNSAAEIPVTSNGEVDDSREHSFNRDLKHSLPSGLGLSETQITSHGFDNTKEGVIEAGAFQGSPAPPLPSVMSPSRVAASRLAQQGSDLIVPAGGQRTQTKSGPVILADEIKNPAMEKLELVRKWSLNTYKCTRQIISEKLGRGSRTVDLELEAQIDILRDNKKKYENILKLAQTLSTQLFQMVHTQRQLGDAFADLSLKSLELHEEFGYNADTQKLLAKNGETLLGAINFFIASVNTLVNKTIEDTLMTVKQYESARIEYDAYRTDLEELNLGPRDANTLPKIEQSQHLFQAHKEKYDKMRNDVSVKLKFLEENKVKVLHNQLVLFHNAIAAYFAGNQKQLEQTLKQFHIKLKTPGVDAPSWLEEQ | 9 | NS5A |  |  |
| ACLY (protein, UniProt P53396 1-1101, looked up) ATP-citrate synthase: MSAKAISEQTGKELLYKFICTTSAIQNRFKYARVTPDTDWARLLQDHPWLLSQNLVVKPDQLIKRRGKLGLVGVNLTLDGVKSWLKPRLGQEATVGKATGFLKNFLIEPFVPHSQAEEFYVCIYATREGDYVLFHHEGGVDVGDVDAKAQKLLVGVDEKLNPEDIKKHLLVHAPEDKKEILASFISGLFNFYEDLYFTYLEINPLVVTKDGVYVLDLAAKVDATADYICKVKWGDIEFPPPFGREAYPEEAYIADLDAKSGASLKLTLLNPKGRIWTMVAGGGASVVYSDTICDLGGVNELANYGEYSGAPSEQQTYDYAKTILSLMTREKHPDGKILIIGGSIANFTNVAATFKGIVRAIRDYQGPLKEHEVTIFVRRGGPNYQEGLRVMGEVGKTTGIPIHVFGTETHMTAIVGMALGHRPIPNQPPTAAHTANFLLNASGSTSTPAPSRTASFSESRADEVAPAKKAKPAMPQDSVPSPRSLQGKSTTLFSRHTKAIVWGMQTRAVQGMLDFDYVCSRDEPSVAAMVYPFTGDHKQKFYWGHKEILIPVFKNMADAMRKHPEVDVLINFASLRSAYDSTMETMNYAQIRTIAIIAEGIPEALTRKLIKKADQKGVTIIGPATVGGIKPGCFKIGNTGGMLDNILASKLYRPGSVAYVSRSGGMSNELNNIISRTTDGVYEGVAIGGDRYPGSTFMDHVLRYQDTPGVKMIVVLGEIGGTEEYKICRGIKEGRLTKPIVCWCIGTCATMFSSEVQFGHAGACANQASETAVAKNQALKEAGVFVPRSFDELGEIIQSVYEDLVANGVIVPAQEVPPPTVPMDYSWARELGLIRKPASFMTSICDERGQELIYAGMPITEVFKEEMGIGGVLGLLWFQKRLPKYSCQFIEMCLMVTADHGPAVSGAHNTIICARAGKDLVSSLTSGLLTIGDRFGGALDAAAKMFSKAFDSGIIPMEFVNKMKKEGKLIMGIGHRVKSINNPDMRVQILKDYVRQHFPATPLLDYALEVEKITTSKKPNLILNVDGLIGVAFVDMLRNCGSFTREEADEYIDIGALNGIFVLGRSMGFIGHYLDQKRLKQGLYRHPWDDISYVLPEHMSM | 1 | NS5A |  |  |
| TRAF3IP3 (protein, UniProt Q9Y228 1-551, looked up) TRAF3-interacting …: MISPDPRPSPGLARWAESYEAKCERRQEIRESRRCRPNVTTCRQVGKTLRIQQREQLQRARLQQFFRRRNLELEEKGKAQHPQAREQGPSRRPGQVTVLKEPLSCARRISSPREQVTGTSSEVFPAQHPPPSGICRDLSDHLSSQAGGLPPQDTPIKKPPKHHRGTQTKAEGPTIKNDASQQTNYGVAVLDKEIIQLSDYLKEALQRELVLKQKMVILQDLLSTLIQASDSSWKGQLNEDKLKGKLRSLENQLYTCTQKYSPWGMKKVLLEMEDQKNSYEQKAKESLQKVLEEKMNAEQQLQSTQRSLALAEQKCEEWRSQYEALKEDWRTLGTQHRELESQLHVLQSKLQGADSRDLQMNQALRFLENEHQQLQAKIECLQGDRDLCSLDTQDLQDQLKRSEAEKLTLVTRVQQLQGLLQNQSLQLQEQEKLLTKKDQALPVWSPKSFPNEVEPEGTGKEKDWDLRDQLQKKTLQLQAKEKECRELHSELDNLSDEYLSCLRKLQHCREELNQSQQLPPRRQCGRWLPVLMVVIAAALAVFLANKDNLMI |  | NS4A | 1 |  |
| ZMYM2 (protein, UniProt Q9UBW7 1-1377, looked up) Zinc finger MYM-type protein 2: MDTSSVGGLELTDQTPVLLGSTAMATSLTNVGNSFSGPANPLVSRSNKFQNSSVEDDDDVVFIEPVQPPPPSVPVVADQRTITFTSSKNEELQGNDSKITPSSKELASQKGSVSETIVIDDEEDMETNQGQEKNSSNFIERRPPETKNRTNDVDFSTSSFSRSKVNAGMGNSGITTEPDSEIQIANVTTLETGVSSVNDGQLENTDGRDMNLMITHVTSLQNTNLGDVSNGLQSSNFGVNIQTYTPSLTSQTKTGVGPFNPGRMNVAGDVFQNGESATHHNPDSWISQSASFPRNQKQPGVDSLSPVASLPKQIFQPSVQQQPTKPVKVTCANCKKPLQKGQTAYQRKGSAHLFCSTTCLSSFSHKPAPKKLCVMCKKDITTMKGTIVAQVDSSESFQEFCSTSCLSLYEDKQNPTKGALNKSRCTICGKLTEIRHEVSFKNMTHKLCSDHCFNRYRMANGLIMNCCEQCGEYLPSKGAGNNVLVIDGQQKRFCCQSCVSEYKQVGSHPSFLKEVRDHMQDSFLMQPEKYGKLTTCTGCRTQCRFFDMTQCIGPNGYMEPYCSTACMNSHKTKYAKSQSLGIICHFCKRNSLPQYQATMPDGKLYNFCNSSCVAKFQALSMQSSPNGQFVAPSDIQLKCNYCKNSFCSKPEILEWENKVHQFCSKTCSDDYKKLHCIVTYCEYCQEEKTLHETVNFSGVKRPFCSEGCKLLYKQDFARRLGLRCVTCNYCSQLCKKGATKELDGVVRDFCSEDCCKKFQDWYYKAARCDCCKSQGTLKERVQWRGEMKHFCDQHCLLRFYCQQNEPNMTTQKGPENLHYDQGCQTSRTKMTGSAPPPSPTPNKEMKNKAVLCKPLTMTKATYCKPHMQTKSCQTDDTWRTEYVPVPIPVPVYIPVPMHMYSQNIPVPTTVPVPVPVPVFLPAPLDSSEKIPAAIEELKSKVSSDALDTELLTMTDMMSEDEGKTETTNINSVIIETDIIGSDLLKNSDPETQSSMPDVPYEPDLDIEIDFPRAAEELDMENEFLLPPVFGEEYEEQPRPRSKKKGAKRKAVSGYQSHDDSSDNSECSFPFKYTYGVNAWKHWVKTRQLDEDLLVLDELKSSKSVKLKEDLLSHTTAELNYGLAHFVNEIRRPNGENYAPDSIYYLCLGIQEYLCGSNRKDNIFIDPGYQTFEQELNKILRSWQPSILPDGSIFSRVEEDYLWRIKQLGSHSPVALLNTLFYFNTKYFGLKTVEQHLRLSFGTVFRHWKKNPLTMENKACLRYQVSSLCGTDNEDKITTGKRKHEDDEPVFEQIENTANPSRCPVKMFECYLSKSPQNLNQRMDVFYLQPECSSSTDSPVWYTSTSLDRNTLENMLVRVLLVKDIYDKDNYELDEDTD |  | NS3 |  | 2 |
